Results on 21 sequences are retold here after the Immune Epitope Database (IEDB).

A value given as a limit tells only on which side of the number the result lay.

The target in experiment [1] is HLA-A*03:01. Briefly: IEDB peptide-MHC binding, purified MHC/direct/fluorescence; filed as Kd, often an IC50 or EC50 that approximates it; ≥ and ≤ were set here for values at or beyond the usual limits of such assays.
For experiment [2], the target named is HLA-A*11:01. The experiment is described as above.
The target in experiment [3] is HLA-A*31:01. Description: IEDB peptide-MHC binding, purified MHC/competitive/fluorescence; filed as Kd, often an IC50 or EC50 that approximates it; ≥ and ≤ were set here for values at or beyond the usual limits of such assays.
The target in the next experiment is HLA-A*01:01. Description: IEDB peptide-MHC binding, purified MHC/direct/fluorescence; filed as Kd, often an IC50 or EC50 that approximates it; ≥ and ≤ were set here for values at or beyond the usual limits of such assays.
Experiment [4] deals with HLA-A*02:01. The description is as above. The note with it: source organism: Escherichia coli O157:H7.
Experiment [5] deals with HLA-A*31:01. The experiment is described as above. Conditions: source organism: Escherichia coli O157:H7.
Another experiment has as its target HLA-A*68:02. The experiment is described as above. The note with it: source organism: Escherichia coli O157:H7.
The target in experiment [6] is HLA-A*69:01. Described as above.
The next experiment deals with HLA-B*07:02. The description is as above. Conditions: source organism: Escherichia coli O157:H7.
Another experiment addresses HLA-B*15:17. Described as above.
Experiment [7] has as its target HLA-B*18:01. The experiment is described as above. The note with it: source organism: Escherichia coli O157:H7.
In the next experiment the target is HLA-B*27:05. The description is as above. Conditions: source organism: Escherichia coli O157:H7.
The target in the next experiment is HLA-B*40:01. The description is as above. Conditions: source organism: Escherichia coli O157:H7.
The next experiment has as its target HLA-B*48:01. The experiment is described as above. Conditions: source organism: Escherichia coli O157:H7.
The target in experiment [8] is HLA-B*57:01. Described as above.
For the next experiment, the target named is HLA-B*58:01. Described as above.
Experiment [9] addresses HLA-A*03:01. Description: IEDB peptide-MHC binding, purified MHC/competitive/fluorescence; ≥ and ≤ were set here for values at or beyond the usual limits of such assays.
For experiment [10], the target named is HLA-A*11:01. The experiment is described as above.
The target of a further experiment is HLA-A*30:01. Description: IEDB peptide-MHC binding, purified MHC/competitive/radioactivity; filed as Kd, often an IC50 or EC50 that approximates it; ≥ and ≤ were set here for values at or beyond the usual limits of such assays. The note with it: source organism: Dengue virus 1 Brazil/97-11/1997.
A further experiment deals with HLA-A*32:01. The description is as above. The note with it: source organism: Dengue virus 1 Brazil/97-11/1997.
In the next experiment the target is HLA-A*68:01. The experiment is described as above. The note with it: source organism: Dengue virus 1 Brazil/97-11/1997.
A further experiment concerns the target HLA-A*02:12. Description: IEDB peptide-MHC binding, purified MHC/direct/fluorescence; filed as Kd, often an IC50 or EC50 that approximates it; ≥ and ≤ were set here for values at or beyond the usual limits of such assays. The note with it: source organism: Mycobacterium tuberculosis str. Haarlem.
Experiment [11] has as its target HLA-A*02:01. Description: IEDB peptide-MHC binding, purified MHC/competitive/fluorescence; ≥ and ≤ were set here for values at or beyond the usual limits of such assays.
The target in experiment [12] is HLA-A*02:01. Description: IEDB peptide-MHC binding, purified MHC/competitive/fluorescence; filed as Kd, often an IC50 or EC50 that approximates it; ≥ and ≤ were set here for values at or beyond the usual limits of such assays. The note with it: source organism: Macaca mulatta.
Another experiment deals with HLA-A*26:01. The description is as above. The note with it: source organism: Macaca mulatta.
Experiment [13] addresses HLA-A*69:01. The description is as above. The note with it: source organism: Macaca mulatta.
Experiment [14] concerns the target HLA-B*15:01. The experiment is described as above. The note with it: source organism: Macaca mulatta.
In experiment [15] the target is HLA-B*18:01. Described as above. Conditions: source organism: Macaca mulatta.
For the next experiment, the target named is HLA-B*27:03. Described as above. The note with it: source organism: Macaca mulatta.
A further experiment has as its target HLA-B*39:01. The experiment is described as above. The note with it: source organism: Macaca mulatta.
A further experiment concerns the target HLA-B*46:01. Described as above. Conditions: source organism: Macaca mulatta.
The target of a further experiment is HLA-B*51:01. Described as above. The note with it: source organism: Macaca mulatta.
For experiment [16], the target named is HLA-B*57:01. Described as above. Conditions: source organism: Macaca mulatta.
In experiment [17] the target is HLA-B*15:01. Briefly: IEDB peptide-MHC binding, purified MHC/direct/fluorescence; filed as Kd, often an IC50 or EC50 that approximates it; ≥ and ≤ were set here for values at or beyond the usual limits of such assays. The note with it: source organism: Escherichia coli O157:H7.
For a further experiment, the target named is HLA-B*44:02. The description is as above. The note with it: source organism: Escherichia coli O157:H7.
[18] abbreviates: source organism: Mammarenavirus lassaense.
Where [19] appears, read: source organism: Escherichia coli O157:H7.
[20] abbreviates: source organism: Vaccinia virus.
Setting [21] is: source organism: Vibrio cholerae.
Where [22] appears, read: source organism: Influenza B virus.
[23] abbreviates: source organism: Sudan ebolavirus.
The mark [24] stands for this setting: source organism: Vaccinia virus WR.
Setting [25] is: source organism: Zaire ebolavirus.
Where [26] appears, read: source organism: Yersinia pestis.
Where [27] appears, read: source organism: Giardia lamblia ATCC 50803.

In general, Kd refers to a measure of binding affinity in units of concentration. In the case of AVNNLVELK, the results for the Kd in the experiment with HLA-A*03:01 [1] (setting [18]), with HLA-A*11:01 [2] (setting [18]) and in the experiment with HLA-A*31:01 [3] (source organism: Lassa virus Josiah) were 2.4 µM, 0.0112 µM and 0.0775 µM, respectively.
As to EEDAAVDDL, the Kd with HLA-A*01:01 (setting [19]), with HLA-A*02:01 [4], with HLA-A*11:01 [2] (setting [19]), with HLA-A*31:01 [5], in the experiment with HLA-A*68:02 and with HLA-A*69:01 [6] (setting [19]) was not below 20 µM throughout. In addition, the Kd in the experiment with HLA-B*07:02 is not below 20 µM; with HLA-B*15:17 (setting [19]), not below 20 µM; with HLA-B*18:01 [7] it was not below 20 µM; with HLA-B*27:05 it was not below 20 µM; with HLA-B*40:01, 1.45 µM; with HLA-B*48:01, not below 20 µM. In addition, the Kd with HLA-B*57:01 [8] (setting [19]) and with HLA-B*58:01 (setting [19]) was not below 20 µM each time.
What is called IC50 is the concentration needed to halve the response being measured. A lower IC50 goes with inhibition by little substance. As for INNQLLLQK, the half-maximal inhibitory concentration (IC50) was determined as 64.2 µM with HLA-A*03:01 [9] (setting [20]) and 2.44 µM with HLA-A*11:01 [10] (setting [20]).
Take KAYSEAETF: the values for the Kd with HLA-B*15:17 (setting [21]), in the experiment with HLA-B*57:01 [8] (setting [21]) and with HLA-B*58:01 (setting [21]) were 0.0215 µM, 0.173 µM and 0.0238 µM, respectively.
Turning to KSEPEGTRM, the values for the Kd with HLA-B*15:17 (setting [22]), in the experiment with HLA-B*57:01 [8] (setting [22]) and with HLA-B*58:01 (setting [22]) were 3.5 µM, not below 20 µM and 19.7 µM, respectively.
Regarding KTFDTEYQK, the equilibrium dissociation constant (Kd) amounted to 0.0125 µM with HLA-A*11:01 [2] (source organism: Dengue virus 1 Singapore/S275/1990); 0.128 µM in the experiment with HLA-A*31:01 [3] (source organism: dengue virus type 1); 0.388 µM with HLA-A*30:01; 7.72 µM in the experiment with HLA-A*32:01; 0.0046 µM in the experiment with HLA-A*68:01.
For the sequence LLGQNTPAI, the dissociation constant Kd with HLA-A*02:12 is 0.004 µM; with HLA-A*69:01 [6] (source organism: Mycobacterium tuberculosis) it was 1.19 µM.
Consider LMQGSTLPR, for which the Kd with HLA-A*03:01 [1] (source organism: Influenza A virus (A/South Carolina/1/1918(H1N1))) stood at 6 µM; with HLA-A*31:01 [3] (source organism: Influenza A virus (A/swine/Italy/1509-6/97(H1N1))), 0.0302 µM.
Consider LRTYTILNR, for which the IC50 in the experiment with HLA-A*03:01 [9] (setting [23]) is not below 286 µM.
Turning to LVDYGLVSK, the 50% inhibitory concentration (IC50) in the experiment with HLA-A*03:01 [9] (setting [24]) worked out at 12.5 µM; with HLA-A*11:01 [10] (setting [24]) it was 1.33 µM.
On to MVLASTTAK, for which the results for the Kd with HLA-A*03:01 [1] (source organism: Influenza A virus (A/turkey/MN/735/79(H6N2))) and in the experiment with HLA-A*31:01 [3] (source organism: Influenza A virus (A/swine/Hannover/1/1981(H1N1))) were 0.0159 µM and 0.0461 µM, respectively.
Take MVQVHSQGR: the IC50 with HLA-A*03:01 [9] (setting [25]) was found to be 61.4 µM; with HLA-A*11:01 [10] (setting [25]), 4.76 µM.
In the case of QRVIPVYQV, the IC50 in the experiment with HLA-A*02:01 [11] (setting [25]) is not below 113 µM; with HLA-A*03:01 [9] (setting [25]), not below 93.5 µM; with HLA-A*11:01 [10] (setting [25]), 16.2 µM.
Consider RLNWLTHLK, for which the Kd stood at 0.264 µM in the experiment with HLA-A*03:01 [1] (source organism: Influenza A virus (A/Nagasaki/N03/2005(H3N2))) and 0.0025 µM with HLA-A*31:01 [3] (source organism: Influenza A virus (A/CHU/2-524/2005(H3N2))).
With SAEVVTLWY, the Kd is 0.0016 µM with HLA-A*01:01 (source organism: Pomacentrus moluccensis); not below 20 µM with HLA-A*02:01 [12]; not below 20 µM with HLA-A*26:01; not below 20 µM with HLA-A*69:01 [13]; not below 20 µM in the experiment with HLA-B*15:01 [14]; not below 20 µM with HLA-B*18:01 [15]. The Kd with HLA-B*27:03, in the experiment with HLA-B*39:01, with HLA-B*46:01, with HLA-B*51:01 and in the experiment with HLA-B*57:01 [16] was not below 20 µM in each case.
As for SLLQLPRDK, the IC50 in the experiment with HLA-A*02:01 [11] (setting [23]) was 16.5 µM; with HLA-A*03:01 [9] (setting [23]), 3.84 µM; with HLA-A*11:01 [10] (setting [23]) it was 5.08 µM.
On to STFTRGAQK, for which the Kd with HLA-A*03:01 [1] (setting [18]) stood at 0.0784 µM; with HLA-A*11:01 [2] (setting [18]) it was 0.0015 µM; in the experiment with HLA-A*31:01 [3] (setting [18]), 0.027 µM.
With TCKAFGLYK, the values for the half-inhibitory concentration (IC50) in the experiment with HLA-A*03:01 [9] (setting [24]) and with HLA-A*11:01 [10] (setting [24]) were 6.41 µM and 1.14 µM, respectively.
For TSDGFINGW, the results for the Kd in the experiment with HLA-B*15:17 (setting [26]) and with HLA-B*58:01 (setting [26]) were 0.251 µM and 0.088 µM, respectively.
As to TTHSKGATK, the Kd was determined as 0.337 µM with HLA-A*03:01 [1] (setting [27]), 0.246 µM in the experiment with HLA-A*11:01 [2] (setting [27]) and 0.454 µM in the experiment with HLA-A*31:01 [3] (setting [27]).
For YECTSRHFT, the Kd with HLA-A*01:01 (setting [19]), in the experiment with HLA-A*02:01 [4], in the experiment with HLA-A*03:01 [1] (setting [19]), with HLA-A*11:01 [2] (setting [19]), in the experiment with HLA-A*31:01 [5] and in the experiment with HLA-A*68:02 was not below 20 µM in each case. Moreover, the Kd in the experiment with HLA-A*69:01 [6] (setting [19]) was not below 20 µM; in the experiment with HLA-B*07:02 it was not below 20 µM; with HLA-B*15:01 [17] it was not below 20 µM; with HLA-B*15:17 (setting [19]) it was not below 20 µM; with HLA-B*18:01 [7] it was 0.318 µM; with HLA-B*27:05, not below 20 µM. The Kd with HLA-B*40:01 was 2.27 µM; in the experiment with HLA-B*44:02, not below 20 µM; in the experiment with HLA-B*48:01, not below 20 µM; with HLA-B*57:01 [8] (setting [19]), not below 20 µM; with HLA-B*58:01 (setting [19]), not below 20 µM.
